Drawing on patent US20230265217A1 (published 2023), this text covers IC50 and Kd for 7 molecules.

Test [1] has as its target 178-6. The test is described as follows: binding competition.
Test [2] has as its target Antibody 178-09_His B.1.1.7 (27080) (SARS-CoV-2, UniProt P0DTC2 14-685). The experiment in a line: FACS. For orientation: In flow cytometry, cells or beads pass a laser one at a time.
Test [3] concerns the target Antibody 178-08_His 501.V2 (27079) (SARS-CoV-2, UniProt P0DTC2 14-685). The test is described as follows: FACS.
Test [4] concerns the target 178-6. The test is described as follows: competition.
The target of test [5] is SARS-CoV-2 S Trimer B.1.1.529 Omicron. The experiment in a line: SPR. In general terms: In SPR one partner is held on a chip, and binding of the other changes the refractive index at the surface.
For test [6], the target named is SARS-CoV-2 S1 Subunit Monomer B.1.1.529 Omicron. The experiment in a line: SPR.
In test [7] the target is Antibody 178-10_His CA_W152C_L452R_D614G (27081) (SARS-CoV-2, UniProt P0DTC2 14-685). The test is described as follows: FACS.
Test [8] addresses SARS-CoV-2 S1 Subunit Monomer B.1.617.2 Delta. The experiment in a line: SPR.

Values joined by “and” are separate entries in the source; they are usually repeats but may differ in a detail not shown here. Equal entries are not always repeated. Where only a bound is given, the exact number is not on record here.

B1: 5A-3 (VHH)
VHH: EVQLVESGGGLVQPGGSLRLSCAASGSIFSIDVMGWFRQAPGKEREFVAGISWSGDSTLYADSVKGRFTISADNSKNTAYLQMNSLKPEDTAVYYCAAFDGYTGSDWGQGTLVTVSS
As a reminder, the IC50 is the concentration needed to halve the response being measured. B1: the IC50 with 178-6 [1] is 0.904 nM; in test [2], 0.891 nM; in test [3], 0.587 nM.

B2: 7-14 (VHH)
VHH: EVQLVESGGGLVQPGGSLRLSCAASGSTFSINAMGWFRQAPGKEREFVAGISRGGTTNYADSVKGRFTISADNSKNTAYLQMNSLKPEDTAVYYCAADGVPEYSDYASGPVWGQGTLVTVSS
In the case of B2, the IC50 in test [2] amounted to 2.52 nM; in test [3], 4.42 nM; in the test with 178-6 [4], 0.682 nM.

B3: Variant 6A-3 (VHH)
VHH: EVQLVESGGGLVQPGGSLRLSCAASGFTFSPSWMGWFRQAPGKEREFVATINEYGGRNYADSVKGRFTISADNSKNTAYLQMNSLKPEDTAVYYCARVDRDFDYWGQGTLVTVSS
Usually Kd stands for the concentration at which binding is half-saturated. A high value points to lower affinity. In the case of B3, the Kd in test [5] was < 0.04 nM; in test [6] it was 3.5 nM.

B4: 7-26 (VHH)
VHH: EVQLVESGGGLVQPGGSLRLSCAASGSTFSINAMGWFRQAPGKEREFVAGITSSGGYTNYADSVKGRFTISADNSKNTAYLQMNSLKPEDTAVYYCAADGVPEYSDYASGPVWGQGTLVTVSS
On to B4, for which the IC50 in test [7] is 0.56 nM and 0.634 nM; in test [2], 1.42 nM; in test [3], 0.979 nM; in the test with 178-6 [4], 0.138 nM.

B5: 7-37 (VHH)
VHH: EVQLVESGGGLVQPGGSLRLSCAASGSTLSINAMGWFRQAPGKEREFVAGITRSGSVTNYADSVKGRFTISADNSKNTAYLQMNSLKPEDTAVYYCAADGVPEYSDYASGPVWGQGTLVTVSS
B5: the figures for the half-maximal inhibitory concentration (IC50) (in test [2]; in test [3]; with 178-6 [4]) were 2.82 nM, 2.1 nM and 7.51 nM, respectively.

B6: Variant 3-31 (VHH)
VHH: EVQLVESGGGLVQPGGSLRLSCAASGSTFSINAMGWFRQAPGKEREFVAGITSSGGYTNYADSVKGRFTISADNSKNTAYLQMNSLKPEDTAVYYCAADGVPEYSDYASGPVWGQGTLVTVSS
B6: the Kd stood at 2.1 nM in test [5] and 1.1 nM in test [8].

B7: 3-31 (VHH)
VHH: EVQLVESGGGLVQPGGSLRLSCAASGSTFSINAMGWFRQAPGKEREFVAGITSSGGYTNYADSVKGRFTISADNSKNTAYLQMNSLKPEDTAVYYCAADGVPEYSDYASGPVWGQGTLVTVSS
Consider B7, for which the figures for the half-maximal inhibitory concentration (IC50) (in test [7]; in test [3]; with 178-6 [4]) were 0.629 nM, 325 nM and 1.25 nM, respectively.
